Each block holds one binder with its values, some of them ahead of it.
What was measured:
[1] = target: T1, Full-length cynomolgus monkey PSMA (TSC308), on cells (cynomolgus monkey, UniProt Q04609 1-750 (human entry)); experiment: cell binding on CHOK1SV/cynoPSMA transfectants, MSD electrochemiluminescence (ECL), SULFO-TAG goat anti-human IgG
T1 construct: also called cyno PSMA; CHOK1SV/cynoPSMA
T1 chain: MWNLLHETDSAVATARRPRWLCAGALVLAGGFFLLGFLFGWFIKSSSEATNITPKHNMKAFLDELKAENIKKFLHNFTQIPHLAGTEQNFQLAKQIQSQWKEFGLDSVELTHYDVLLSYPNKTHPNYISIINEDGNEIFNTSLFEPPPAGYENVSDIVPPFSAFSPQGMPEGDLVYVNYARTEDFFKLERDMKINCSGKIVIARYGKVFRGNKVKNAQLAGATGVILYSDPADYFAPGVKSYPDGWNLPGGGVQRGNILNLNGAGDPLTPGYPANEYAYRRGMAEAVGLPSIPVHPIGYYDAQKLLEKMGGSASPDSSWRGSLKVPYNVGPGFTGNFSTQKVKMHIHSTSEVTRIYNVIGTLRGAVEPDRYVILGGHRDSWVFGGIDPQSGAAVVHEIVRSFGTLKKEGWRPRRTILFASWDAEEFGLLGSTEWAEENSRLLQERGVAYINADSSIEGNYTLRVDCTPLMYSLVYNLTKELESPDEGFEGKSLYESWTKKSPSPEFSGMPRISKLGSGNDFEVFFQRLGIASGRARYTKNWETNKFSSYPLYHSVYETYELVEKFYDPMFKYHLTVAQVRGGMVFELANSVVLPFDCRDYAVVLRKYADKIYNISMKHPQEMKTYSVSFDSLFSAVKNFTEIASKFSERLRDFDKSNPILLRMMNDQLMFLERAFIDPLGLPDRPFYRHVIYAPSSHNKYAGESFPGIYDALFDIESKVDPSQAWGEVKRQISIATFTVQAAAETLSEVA
Description: (§1) To measure the relative binding activity of humanized PSMA-binding domain variants, constructs were tested in cell binding assays on CHOK1SV cells transfected with human or cynomolgus PSMA. The generation of CHOK1SV/huPSMA cells was described earlier; CHOK1SV/cynoPSMA cells were generated using the same method. Bivalent PSMA-binding domains variants in scFv-Fc format (constructs PSMA01019, PSMA01020, PSMA01021, PSMA01023, PSMA01024 and PSMA01025) were tested in these assays.
(§2) Binding studies on CHOK1SV transfectants were performed in live cell-based ELISA using electrochemiluminescence (Meso Scale Discovery). CHOK1SV cells were washed and seeded at 50,000 cells/well in 1× Hank's Balanced Salt Solution (HBSS) on 96-well Multi-Array High Bind plates (Meso Scale Discovery) and incubated at 37° C. for one hour. Following a blocking step in PBS buffer with 20% FBS, serial dilutions of PSMA-binding constructs (from 0.002 to 100 nM) were added in PBS buffer with 10% FBS and incubated at room temperature for one hour. Plates were washed with PBS and the specific binding levels were detected by SULFO TAG-labeled goat anti-human IgG antibody (Meso Scale Discovery #R32AJ). Following an hour incubation and wash steps, 150 μL/well surfactant free 1× Read Buffer T were added and samples were analyzed on MSD Sector Imager (Meso Scale Discovery). Resulting electrochemiluminescence (ECL) values versus concentrations were plotted and nonlinear regression analysis to determine EC50 values was performed in GraphPad Prism 7® graphing and statistics software.

[2] = target: T2, Full-length Human PSMA (TSC435), on cells (human, UniProt Q04609 1-750); experiment: cell binding on CHOK1SV/humanPSMA transfectants, MSD electrochemiluminescence (ECL), SULFO-TAG goat anti-human IgG
T2 construct: also called CHOK1SV/huPSMA; PSMA on C4-2B, 22RV1, LNCaP, MDA-PCa-2b cells
Description: as §1, §2

[3] = target: T3, Human PSMA ECD-AFH (TSC033), recombinant dimeric PSMA ECD (human, UniProt Q04609 44-750); experiment: SPR (Biacore T200), scFv-Fc captured on anti-human IgG, dimeric PSMA ECD as analyte, 1:1 fit
T3 construct: SEC-purified dimer; also called HuPSMA-AFH; Avi-His-Human PSMA ECD
T3 sequence (Q04609 other isoform, or with tags, fused parts or gaps): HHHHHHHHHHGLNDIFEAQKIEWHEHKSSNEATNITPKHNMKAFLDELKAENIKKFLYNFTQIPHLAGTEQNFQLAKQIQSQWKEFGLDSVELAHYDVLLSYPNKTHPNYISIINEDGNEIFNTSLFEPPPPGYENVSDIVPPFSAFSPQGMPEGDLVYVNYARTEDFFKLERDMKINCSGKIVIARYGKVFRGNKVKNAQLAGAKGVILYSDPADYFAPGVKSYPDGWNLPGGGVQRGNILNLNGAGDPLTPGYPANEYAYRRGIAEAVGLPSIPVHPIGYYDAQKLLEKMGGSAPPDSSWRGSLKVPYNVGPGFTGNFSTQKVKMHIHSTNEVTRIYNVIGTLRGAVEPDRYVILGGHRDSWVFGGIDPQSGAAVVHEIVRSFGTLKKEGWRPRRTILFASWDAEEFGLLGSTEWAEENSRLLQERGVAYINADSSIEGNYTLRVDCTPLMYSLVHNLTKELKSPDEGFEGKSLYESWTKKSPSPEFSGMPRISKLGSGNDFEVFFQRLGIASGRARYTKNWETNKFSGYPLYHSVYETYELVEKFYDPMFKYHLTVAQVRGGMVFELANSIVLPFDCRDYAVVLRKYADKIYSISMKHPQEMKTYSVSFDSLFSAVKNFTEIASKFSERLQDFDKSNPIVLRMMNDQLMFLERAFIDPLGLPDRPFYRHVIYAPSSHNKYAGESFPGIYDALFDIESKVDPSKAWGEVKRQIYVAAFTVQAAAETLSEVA
Description: Mouse anti-human IgG (GE, BR-1008-39) at 25 μg/ml in 10 mM sodium acetate pH 5.0 was immobilized at a density of ˜2,000-4,000 response units (RU) onto each flow cell of a CM5 research-grade sensor chip (GE) by standard amine coupling chemistry. Each anti-PSMA protein at approximately 40 nM in dPBS with 0.2% BSA buffer was captured in a flow cell with the immobilized anti-human IgG at a flow rate of […] for up to 30 seconds, leaving one flow cell surface unmodified as the reference. Using a multi-cycle kinetics mode, a buffer blank and […] different concentrations of ECD ranging from 1 nM to 243 nM were sequentially injected through each flow cell at 30 μL/min with association times varying from 300-600 seconds and dissociation times varying from 600-1200 seconds. Regeneration was achieved by injection of 3 M MgCl₂ at a flow rate of 30 μL/min for up to 40 seconds followed by dPBS with 0.2% BSA buffer stabilization for 1 min.
Sensorgrams obtained from kinetic SPR measurements were analyzed using the double subtraction method. The signal from the reference flow cell was subtracted from the analyte binding response obtained from flow cells with captured ligands. The buffer blank response was then subtracted from analyte binding responses and the final double-referenced data were analyzed with Biacore T200 Evaluation software (2.0, GE), globally fitting data to derive kinetic parameters. All sensorgrams were fitted using a simple one-to-one binding model.

[4] = target: T2, Full-length Human PSMA (TSC435), on …; experiment: flow cytometry on C4-2B cells, PE goat anti-human IgG Fc secondary, MFI (median)
[5] = target: T4, human CD3ε in the TCR/CD3 complex on Jurkat cells (human, UniProt P07766 23-207); experiment: flow cytometry on Jurkat cells, PE goat anti-human IgG Fc secondary, MFI (median)
T4 construct: whole, on cells; On the cells it stands in the whole TCR/CD3 complex; also called CD3 (+) cells; CD3-expressing Jurkat cells
T4 sequence (P07766 23-207, one chain of several): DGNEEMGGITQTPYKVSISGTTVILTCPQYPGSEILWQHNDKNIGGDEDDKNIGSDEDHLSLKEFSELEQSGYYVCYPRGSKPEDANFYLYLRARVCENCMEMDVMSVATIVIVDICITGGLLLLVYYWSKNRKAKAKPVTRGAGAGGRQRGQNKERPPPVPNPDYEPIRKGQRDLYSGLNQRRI

- EC50 [1]: 8 nM
- EC50 [2]: 4 nM
- Kd [3]: 16 nM
- koff [3]: 0.00019 s⁻¹
- kon [3]: 12000 M⁻¹ s⁻¹
B1: PSMA01020 Anti-PSMA scFv-Fc (Fc fusion)
chain: DIQMTQSPSTLSASVGDRVTITCRASKSISKYLAWYQQKPGKAPKLLIHSGSSLESGVPSRFSGSGSGTEFTLTISSLQPDDFATYYCQQHIEYPWTFGQGTKVEIKGGGGSGGGGSGGGGSGGGGSEVQLLESGGGLVQPGGSLRLSCAASGYTFTDYYIHWVRQAPGKGLEWIGSFNPYNDYTSYADSVKGRATLSVDKSKNTAYLQMNSLRAEDTAVYYCARSDGYYDAMDYWGQGTLVTVSSSEPKSSDKTHTCPPCPAPEAAGAPSVFLFPPKPKDTLMISRTPEVTCVVVDVSHEDPEVKFNWYVDGVEVHNAKTKPREEQYNSTYRVVSVLTVLHQDWLNGKEYKCAVSNKALPAPIEKTISKAKGQPREPQVYTLPPSRDELTKNQVSLTCLVKGFYPSDIAVEWESNGQPENNYKTTPPVLDSDGSFFLYSKLTVDKSRWQQGNVFSCSVMHEALHNHYTQKSLSLSPGK
notes: Monospecific, bivalent scFv-Fc, VL-VH

- EC50 [4]: 1 nM
- EC50 [5]: 1 nM
B2: PSMA01072 Anti PSMA scFv x Anti CD3 scFv ADAPTIR (bispecific antibody)
chain: QVQLVQSGAEVKKPGASVKVSCKASGYTFTDYYMHWVRQAPGQGLEWMGYFNPYNDYTRYAQKFQGRVTMTRDTSTSTVYMELSSLRSEDTAVYYCARSDGYYDAMDYWGQGTTVTVSSGGGGSGGGGSGGGGSGGGGSDIQMTQSPSSLSASVGDRVTITCRASKSISKYLAWYQQKPGKAPKLLIHSGSSLESGVPSRFSGSGSGTEFTLTISSLQPDDFATYYCQQHIEYPWTFGQGTKVEIKEPKSSDKTHTCPPCPAPPAAAPSVFLFPPKPKDTLMISRTPEVTCVVVDVSHEDPEVKFNWYVDGVEVHNAKTKPREEQYNSTYRVVSVLTVLHQDWLNGKEYKCAVSNKALPAPIEKTISKAKGQPREPQVYTLPPSRDELTKNQVSLTCLVKGFYPSDIAVEWESNGQPENNYKTTPPVLDSDGSFFLYSKLTVDKSRWQQGNVFSCSVMHEALHNHYTQKSLSLSPGGGGSPSQVQLVQSGAEVKKPGASVKVSCKASGYTFTRSTMHWVRQAPGQGLEWIGYINPSSAYTNYAQKFQGRVTLTADKSTSTAYMELSSLRSEDTAVYYCASPQVHYDYNGFPYWGQGTLVTVSSGGGGSGGGGSGGGGSGGGGSDIQMTQSPSSLSASVGDRVTITCRASSSVSYMNWYQQKPGKAPKRWIYDSSKLASGVPSRFSGSGSGTDFTLTISSLQPEDFATYYCQQWSRNPPTFGQGTKVEIKRS
notes: also called PSMA1072

- EC50 [4]: 23 nM
- EC50 [5]: 26 nM
B3: PSMA01026 Anti PSMA scFv-Fc; Anti CD3 scFv-Fc (bispecific antibody)
chain 1: DIQMTQSPSTLSASVGDRVTITCRASKSISKYLAWYQQKPGKAPKLLIHSGSSLESGVPSRFSGSGSGTEFTLTISSLQPDDFATYYCQQHIEYPWTFGQGTKVEIKGGGGSGGGGSGGGGSGGGGSQVQLVQSGAEVKKPGASVKVSCKASGYTFTDYYMHWVRQAPGQGLEWMGYFNPYNDYTRYAQKFQGRVTMTRDTSTSTVYMELSSLRSEDTAVYYCARSDGYYDAMDYWGQGTTVTVEPKSSDKTHTCPPCPAPPAAAPSVFLFPPKPKDTLMISRTPEVTCVVVDVSHEDPEVKFNWYVDGVEVHNAKTKPREEQYNSTYRVVSVLTVLHQDWLNGKEYKCAVSNKALPAPIEKTISKAKGQPREPQVYTLPPSRDELTKNQVSLWCLVKGFYPSDIAVEWESNGQPENNYKTTPPVLDSDGSFFLYSKLTVDKSRWQQGNVFSCSVMHEALHNHYTQKSLSLSPG
chain 2: QVQLVQSGAEVKKPGASVKVSCKASGYTFTRSTMHWVRQAPGQGLEWIGYINPSSAYTNYAQKFQGRVTLTADKSTSTAYMELSSLRSEDTAVYYCASPQVHYDYNGFPYWGQGTLVTVSSGGGGSGGGGSGGGGSGGGGSDIQMTQSPSSLSASVGDRVTITCRASSSVSYMNWYQQKPGKAPKRWIYDSSKLASGVPSRFSGSGSGTDFTLTISSLQPEDFATYYCQQWSRNPPTFGQGTKVEIKEPKSSDKTHTCPPCPAPPAAAPSVFLFPPKPKDTLMISRTPEVTCVVVDVSHEDPEVKFNWYVDGVEVHNAKTKPREEQYNSTYRVVSVLTVLHQDWLNGKEYKCAVSNKALPAPIEKTISKAKGQPREPQVYTLPPSRDELTKNQVSLSCAVKGFYPSDIAVEWESNGQPENNYKTTPPVLDSDGSFFLVSKLTVDKSRWQQGNVFSCSVMHEALHNRFTQKSLSLSPG

- EC50 [4]: 30 nM
- EC50 [5]: 52 nM
B4: PSMA01070 Anti PSMA scFv-Fc; Anti CD3 scFv-Fc (bispecific antibody)
chain 1: QVQLVQSGAEVKKPGASVKVSCKASGYTFTDYYMHWVRQAPGQGLEWMGYFNPYNDYTRYAQKFQGRVTMTRDTSTSTVYMELSSLRSEDTAVYYCARSDGYYDAMDYWGQGTTVTVSSGGGGSGGGGSGGGGSGGGGSDIQMTQSPSSLSASVGDRVTITCRASKSISKYLAWYQQKPGKAPKLLIHSGSSLESGVPSRFSGSGSGTEFTLTISSLQPDDFATYYCQQHIEYPWTFGQGTKVEIKEPKSSDKTHTCPPCPAPPAAAPSVFLFPPKPKDTLMISRTPEVTCVVVDVSHEDPEVKFNWYVDGVEVHNAKTKPREEQYNSTYRVVSVLTVLHQDWLNGKEYKCAVSNKALPAPIEKTISKAKGQPREPQVYTLPPSRDELTKNQVSLWCLVKGFYPSDIAVEWESNGQPENNYKTTPPVLDSDGSFFLYSKLTVDKSRWQQGNVFSCSVMHEALHNHYTQKSLSLSPG
chain 2: B3 chain 2
